Assay: soluble fraction after stress (log2 fold change); higher = more stays soluble; pooled small domains, quantitative proteomics
Conditions: stress: 75 degC
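Note: 20 min heating vs room temperature control held 20 min.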

| Sequence | soluble fraction (log2) |
| --- | --- |
| HMARGTRTRAKLLAAAEVVFARYGYTEASIERITEEAGVGQGTFYLYFASKLEIFEELVDDLNR | -2.88 |
| HMARLEELSNGSIVEGLLSGEAVTVVSTKWYGSSSMEVFYKTNRGSTGSQILYREDEPSLTVLEKS | -0.831 |
| HMARPLHVDALIHLGTEIGSRVGGAHAGPHLLVAGHSPMSELVYARLLGIPTLGWMRGQLTFVNLSK | 0.0485 |
| HMARSKSRQSSVLESVPGLGPSRRRNLLRHFGGLQGVVKAGVEDLMAVRGISRTLAETVYDHLHPGS | -0.735 |
| HMARTIINLPLRNSVDESYNTTVNILQANGFKEVSYNGETVWKKGTGLLTAMQYIKIEFTDTTLVVSGWVQ | ≥ 1.04 |
| HMARTLSVTVSENYANMRLDSFLFESGLYPSRSKAVKQIESGKVFVNGNEPTKKTIVVANDFIVYEEYAEE | -2.63 |
| HMARTTIATPWDKINDLLQGGLGNGDFGLIFGNPGGGKSWSLVALGGFAVKLGYNVIHYTLE | -0.0148 |
| HMASAEDDLTRRARKLLTTSSMLKTLQPDTGERLQWLPQVVRLLAEGVEAPRIVVLIRRAMESG | -1.26 |
| HMASALDFGRYVRSQYSLQEFPLILIAPLNDPHPKEVVRELFNLYLTKPITRSRLFDSLMTVLG | -0.74 |
| HMASDQGAGALREVSAFFEKHGRVPDPDAVDHDEMRLGSIWASIKSAPTDQMRLEDRFGLLD | 0.135 |
| HMASDYYTTTANLNLRSGAGTTYGSLIIIEKGDTVKLLENVNDHWVKIQYDDKIGYVAMSYLLPIE | -1.31 |
| HMASEKSEQLYQQMKLDIAGMPPDTRLPSIRALMRSYSVSQLLIDRTLGRLREEGALRKRFDGLYTYL | -2.42 |
| HMASELQQVQALLESQRYNEALILIETTIGKGASESTELLFARADVFASSGRHDEAEQAYREL | -0.145 |
| HMASELVSADEKYSGLVSYLLGRVVVVDQIDHAIALAKKYRYSLRIVTLDGELLSPGGSMTGGAFKNS | 0.169 |
| HMASEVEVPNVYGMPSSLAERELSAVGLLADYRSRTGTGQQPGTVVHVKPDAGTVVSRGSTVVLFIA | -0.334 |
| HMASFASRAEEVMTKLLANGQPRIKEVADAMHLSSRTLQRRLEREGVSFAELLDRLRKRLAHDMLAHS | -1.51 |
| HMASFGDLSGLKRTYPPQGLPDASRIADFLIARNEGDLSVEQVKALERFLFEHPDHERTARLVAATRVPA | -0.0446 |
| HMASFTDAQALEVKDLYPDWSKIPEGTHLEAGQRVRYNGNLYKVRTGQAHDKQSTWTPTDAASLFEAID | 0.185 |
| HMASIEPLKTSIRIIWYINGEKDSETLLNTPPTAANKANAQKIADMVEQQIQMGIFNRDAVFPSSPKRQ | -1.75 |
| HMASIGVGTIVRVANAVNYNGVKVKAWFNDEGYEVTELSGDRAVLKHNGDLFDAFHVSDLEA | -1.42 |
| HMASINRIENKNGKVVYRIIVSLGYDKQGKKLKKTITYNVNQTATKKQQENEALKYALDIEDKIKNGHD | -1.99 |
| HMASITLDQAKEIALTHAGQTADAVWFEKAEQDYDDGILVYELEFAAKGTEYEYEIDAQTGAIREYKWDD | 0.238 |
| HMASLSEREHDVAVLILQGKTYAEIGQAIFISPRTVEHHVASIRRRLEAKSRSDLIAKLRLTIGGTED | -2.68 |
| HMASPTKQLVLEALRASGQPMSSMELSAQIGVSRATAQRYLSTLASAGEVKIQLRYGTTGRPEQEFLAIE | -1.64 |
| HMASQFSLIVTQADAGMRLDSLLAVSGAYPSRSAAVKQIEAGKVLVNGLARSKRSIVAPGDTIVYEEIP | -0.981 |
| HMASQVERGAVVVTDQRIFFIGVSSEGIEVHGTKIFGMSEKAPLYSHMKGLKKGDSFQFNGLKYVIQDIY | -3.57 |
| HMASRKTERINRLIDVLQHATSRVPASVLSKILGIGERSVRNYVSEVNEQGQFRIDSSSGGYRLVA | -0.492 |
| HMASRTLSYSEFMSRVDSGDVTSVTLDGERIIMRTSNNQEFLSIKPEGEDISERLLAKNIEVRAEAQQ | -0.321 |

| Sequence | soluble fraction (log2) |
| --- | --- |
| HMASVGTHIKRLRAAKRMTQEELAEQLHVTRQAVSAWETGKALPDVEMLERIAAALDADVTEVIYGA | -0.346 |
| HMATAATGIINNNYVNVRSGPATTYNIVGRLDQGSSIEILGSKNDWYQIKTKQLNGWVKNDFINLQK | -0.283 |
| HMATETELNLQLMRIIDELHTDHNTWGSRKITDYLRLQGYEINRKRIQRLMDVMDIQVVYPK | -2.07 |
| HMATEVEVPDVVGRQMALATQLLEARKLRVNVAEIYDEKTPPGQVVSQSPEAGSSVKEERVVTIYVSR | -0.154 |
| HMATGGKIYIGMNDNGKVVGVSDADKLLEDIPNKVRDVLGIIVDVNLLEENGLKYIEIDVPPYSN | -0.698 |
| HMATGIKAVDNVFGWMNLEQVAKTVGLDIPSVLRASGLPEDTPVDISIKKIPGVDDEELKDSLRQYIEKS | -0.107 |
| HMATGTVKWFNPNKGFGFIQQDDASKDVFVHSNELNGVYINEGDKVEFDVVETEKGLSAQNIKK | 0.222 |
| HMATHGRRAVIELREKIVSGELPGGTRLFEVSLAETLDISRTPVREALSRLAEEGLLDRLPNGGFVVRR | -1.18 |
| HMATIGVGSKVTLTTYVDWVGNGLLKTRDFYFVSELNGKRAVLRADSMNGAIYAAVNIDNLRI | -3.66 |
| HMATINGIEKYLSSGLIPGIGPHTAKKLVEKFGLDTLDIMQYNPDRLTEVEGIGDKKAAKISEAFQEQK | 0.00381 |
| HMATKVNSGVTVRDLAELLGLSSADLIKKLMTMGEMATLTQTLTDDSVKAIADEYDRKIEIVSAAQ | 0.536 |
| HMATLTPLGRLQLARYHAQERATLAATAERFQVSTTTVRRWVGRYHQVVAAGGRPTTADMQDRPSRP | -2.07 |
| HMATMSIDERILEIRSRAGLTQQEMADRLFVTRQAVSRWERGETVPGIDTLRLIAEAFDVRVDQILEL | -1.66 |
| HMATQMSSARRGIATDEMKQVAKDEDVTLDWLLPKIAIGSIIIPSNNVRPQKIHNVGIGKGMKTKVN | 0.195 |
| HMATTTEPTSPPAATASLEAKINWLFLIFRNKKTVTASEQKFHAEDASTVVGKETLTDDGTTMTKGETAAG | -0.0674 |
| HMATVELELKPEELRAGMILTKDLISGTGMMLLNKGVTLDNVKVEAIQRYYQLDPPLHGVFALVHGK | -1.32 |
| HMATVGENIRRYRKAQNLSAAKLAEKVGLTQGAILHYERGIRTPGISQLEKIAHALNVSPRM | -0.144 |
| HMATVPNVVGLSEEKAKSRLANNGLNVSVTTEEVSDKSKDGIVSSQTSEGDTVKQGATITITVGKYVEK | 0.111 |
| HMATYDIDALKVDLPSAKELAQFVYDKTDGLVSLDLIGKPKEEQYIVAKNALEGKKVPAEYLTGFNPY | 0.702 |
| HMATYTPYDKQGAKLWRVTAYLGMDSVTGKQRNMKKGGFKTKKEAQLYYNQVKLDFENGTLDQ | -1.36 |
| HMAVEQLKSQIGGFLKANREQSFSAQNMADGLRMNSAAGYQDVVNAMNALVRDGEAVEKDGQFSYNVN | 0.116 |
| HMAVETYRVKKSDTMQTIADRFGLSVEELLEYNQAYKTRELRARDILIIPSRKERKKLQQQKAQAAAQVVQ | -0.632 |
| HMAVGTASNLIGKDIEAYAPIDGSQSSDDTKTISGKVESVHIKDGVVYMNVKDSQSENIIEVEYGALIKVN | 0.251 |
| HMAVKPIDRLRSLMAESNVTDAELQKVVADKGHYAADAPIDSYSEKFISGWLIKYWSQILNLINADRTVL | -0.691 |
| HMAVKTEHGRIWKALPEGQDGYREDVPMFTSKSMYDGSAGIGIFLIRLYEATSDERWLKEAEEAAAHII | 0.157 |
| HMAVLEGPAGKLGIVRFEANRSFTGMGHERFSSADQAFGTKPAAVVASRLFATGQVAGVHVYGNIITVELA | 0.632 |
| HMAVNDPDEKFIELGIPADWVQVVRKAGFQTVEALKTVENPNKLHQELSGLNKKMKLGLKTLSQDEVKDWF | 0.0688 |

Source: the domain aggregation screens of Martell et al. (2025)
